Test results published in US20170002083A1 (KYMAB, published 2017).
Blank lines part the entries; values can stand above or below the binder they belong to.

Columns and labels:
[1] = target: T1, Recombinant Rhesus OX40L (Leader Sequence, FLAG and Isoleucine zipper included) (Rhesus (Macaca mulatta)); test: SPR (ProteOn XPR36), rhesus OX40L at 256 nM, apparent affinity; CNROR = Cannot resolve off-rate
T1 construct: also called RhsOX40L; Rhesus monkey OX40L

[2] = target: T2, Recombinant Human OX40L (Leader sequence, Isoleucine Zipper and FLAG Sequence Included) (human); test: HTRF ligand/receptor neutralisation, biotinylated hOX40L, competitor OX40RFc-AF647; mean of three experiments, SEM +/-0.17
T2 construct: also called hOX40L; recombinant hOX40L
Protocol: (§1) In order to determine whether recombinantly expressed fully human purified IgG inhibit human OX40L binding to OX40RFc the following method was carried out. Fully human purified IgG or other inhibitor were tested in order to establish the clone potency as measured by IC₅₀ values in the assay. Antibodies recombinantly expressed and purified were titrated by diluting in HTRF assay buffer and 5 μL of this titration transferred to a white 384 well low volume non-binding surface polystyrene plate (Greiner). Biotinylated OX40L was diluted in HTRF assay buffer to a working concentration of 2.4 nM and 5 μL added. OX40RFc directly labelled with AF647 was then diluted to working concentration of 10 nM and 5 μL added. Non-specific binding was defined by replacing OX40RFc-AF647 with assay buffer or HMM. […] Plates were covered, protected from light and incubated at room temperature for 3 hrs prior to reading time resolved fluorescence at 620 nm and 665 nm emission wavelengths using an EnVision plate reader (Perkin Elmer). Data were analysed by calculating delta F as described in Equation 4 and percentage of receptor for each sample according to Equation 5 or in some cases Equation 6. IC₅₀ values were determined using GraphPad Prism software by curve fitting using a four-parameter logistic equation (Equation 7) (FIG. 1).

[3] = target: T2, Recombinant Human OX40L (Leader …); test: HTRF ligand/receptor neutralisation: biotinylated hOX40L with OX40RFc-AF647, antibody titrated; readout is % of receptor binding
Protocol: as §1

[4] = target: T1, Recombinant Rhesus OX40L (Leader …); test: SPR (ProteOn XPR36), antibody captured, rhesus OX40L at 256 nM, apparent affinity; CNROR = Cannot resolve off-rate
Protocol: (§2) SPR analysis was carried out using the ProteOn™ XPR36 Array System (BioRad). Anti-mouse IgG (GE Healthcare BR-1008-38) was immobilised on a GLM biosensor surface using amine coupling, the surface was then blocked using 1 M ethanolamine. Test antibodies were captured on this surface and recombinant hOX40L (human and rhesus) were used at a single concentration of 256 nM, binding sensorgrams were double referenced using a buffer injection (i.e. 0 nM) to remove baseline drift and injection artefacts. Apparent affinities for the OX40L-antibody interaction were determined using the 1:1 model inherent to the ProteOn XPR36 analysis software. The assay was run using HBS-EP (Teknova) as running buffer and carried out at 25° C.

[5] = target: T2, Recombinant Human OX40L (Leader …); test: SPR (ProteOn XPR36), antibody captured on anti-mouse IgG, hOX40L at a single concentration of 256 nM, 1:1 model, apparent affinity, 25 C
Protocol: as §2

[6] = target: T2, Recombinant Human OX40L (Leader …); test: HTRF ligand/receptor neutralisation, biotinylated hOX40L, competitor OX40RFc-AF647; mean of three experiments, SEM +/-0.04
Protocol: as §1

T2 sequence (chain, as listed by the source limits assumed): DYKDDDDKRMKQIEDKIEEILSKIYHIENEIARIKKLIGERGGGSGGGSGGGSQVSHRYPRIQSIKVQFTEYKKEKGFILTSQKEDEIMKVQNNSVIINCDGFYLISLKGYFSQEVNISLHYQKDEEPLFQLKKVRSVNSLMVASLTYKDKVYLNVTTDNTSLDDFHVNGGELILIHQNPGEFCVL
T1 sequence (chain, as listed by the source limits assumed): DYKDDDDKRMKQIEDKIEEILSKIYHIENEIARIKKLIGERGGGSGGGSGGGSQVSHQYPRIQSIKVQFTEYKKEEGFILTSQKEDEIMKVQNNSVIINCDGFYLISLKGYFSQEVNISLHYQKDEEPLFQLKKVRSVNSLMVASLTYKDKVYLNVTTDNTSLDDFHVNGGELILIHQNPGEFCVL

binding result [1]: binds | IC50 [2]: 1.2 nM | IC50 (read off the curve) [3]: ~1 nM
B1: 10A07 (human) (antibody, human IgG4 S228P, kappa, V domains shown)
VH: EVQLVESGGVLVQPGGSLRLSCAASGFTFSSYIMTWVRQAPGKGLEWVSGISGSGGGTYYADSMKGRFTISRDNSKNTLYLQMNSLRVEDTAVYYCAKDRLGPITLVRGGYYYGMDVWGQGTTVTVSS
VL: DIQMTQSPSSLSASVGDRVTITCRASQSISDYLNWYQQKPGKAPKFLIYAASSLQSGVPSRFSGSGSGTDFTLTVSSLQPEDFATYYCQQSYSTPRTFGQGTRVEIKR
notes: also called 10A7; 10A07 IgG4PE

binding result [4]: binds
B2: 10A07 (hybridoma) (antibody, V domains shown)
VH: B1 VH
VL: DIQMTQSPSSLSASVGDRVTITCRASQSISDYLNWYQQKPGKAPKFLIYAASSLQSGVPSRFSGSGSGTDFTLTVSSLQPEDFATYYCQQSYSTPRTFGQGTRVEIK
notes: Kappa light chain; also called 10A7; mAb 10A7

Kd [5]: 2.2 nM
B3: 19H01 (hybridoma) (antibody, V domains shown)
VH: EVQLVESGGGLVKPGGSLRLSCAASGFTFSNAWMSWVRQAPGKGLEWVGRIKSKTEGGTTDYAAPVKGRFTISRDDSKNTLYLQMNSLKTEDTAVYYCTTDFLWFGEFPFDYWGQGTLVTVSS
VL: DIQMTQSPSSLSASVGDRVTITCRASQGISNYLAWYQQKPGKIPKLLIYAASTLQSGVPSRFSGSGSGTDFTLTISSLQPEDVATYYCQKYNSAPRTFGQGTKVEIK

binding result [1]: binds | IC50 [6]: 0.75 nM | IC50 (read off the curve) [3]: ~0.8 nM
B4: 2D10 (human) (antibody, human IgG4 S228P, kappa, V domains shown)
VH: EVQLVESGGGLVQPGGSLRLSCAASGFTFSNYAMNWVRQAPGKGLEWVSTISGSGGATRYADSVKGRFTISRDNSRNTVYLQMNSLRVEDTAVFYCTKDRLIMATVRGPYYYGMDVWGQGTTVTVSS
VL: DIQMTQSPSSLSASVGDRVTITCRASQSISSYLNWYQQKPGKAPNLLIYAASSLQSGVPSRFSGSGSETDFTLTISSLQPEDFATYYCQQSHSVSFTFGPGTKVDIKR
notes: also called 02D10; 02D10 IgG4-PE

binding result [4]: binds
B5: 2D10 (hybridoma) (antibody, V domains shown)
VH: B4 VH
VL: DIQMTQSPSSLSASVGDRVTITCRASQSISSYLNWYQQKPGKAPNLLIYAASSLQSGVPSRFSGSGSETDFTLTISSLQPEDFATYYCQQSHSVSFTFGPGTKVDIK
notes: Kappa light chain; also called 02D10

Kd [5]: 5.3 nM
B6: 9H04 (hybridoma) (antibody, V domains shown)
VH: QVQLVESGGGLVKPGGSLRLSCAASRFTLSDYYMTWIRQAPGKGLEWVSYISSSGNTIYYADSVKGRFTISRDNAKNSLYLQMNSLRAEDTAVYYCARDLSGSYWDYYYGMDVWGQGTTVTVSS
VL: AIQLTQSPSSLSTSVGDRVTIACRASQGINNALAWYQQKPGKAPKLLIYDASSLESGVPSRFSGSGSGTDFTLTISSLQPEDFATYYCQQFNSYPRTFGQGTKVEIK
notes: also called 09H04
